Literature values as cited in paper PMC3390648 (The Journal of Biological Chemistry, 2012).

Test system: B subunit
Conditions: last 67 amino acids of recombinant human pol α removed; cited from earlier work

B1: truncated protein: recombinant form of human pol α with the last 67 amino acids removed (protein, UniProt P09884 1-1395, looked up, fragment)
chain: MAPVHGDDSLSDSGSFVSSRARREKKSKKGRQEALERLKKAKAGEKYKYEVEDFTGVYEEVDEEQYSKLVQARQDDDWIVDDDGIGYVEDGREIFDDDLEDDALDADEKGKDGKARNKDKRNVKKLAVTKPNNIKSMFIACAGKKTADKAVDLSKDGLLGDILQDLNTETPQITPPPVMILKKKRSIGASPNPFSVHTATAVPSGKIASPVSRKEPPLTPVPLKRAEFAGDDVQVESTEEEQESGAMEFEDGDFDEPMEVEEVDLEPMAAKAWDKESEPAEEVKQEADSGKGTVSYLGSFLPDVSCWDIDQEGDSSFSVQEVQVDSSHLPLVKGADEEQVFHFYWLDAYEDQYNQPGVVFLFGKVWIESAETHVSCCVMVKNIERTLYFLPREMKIDLNTGKETGTPISMKDVYEEFDEKIATKYKIMKFKSKPVEKNYAFEIPDVPEKSEYLEVKYSAEMPQLPQDLKGETFSHVFGTNTSSLELFLMNRKIKGPCWLEVKSPQLLNQPVSWCKVEAMALKPDLVNVIKDVSPPPLVVMAFSMKTMQNAKNHQNEIIAMAALVHHSFALDKAAPKPPFQSHFCVVSKPKDCIFPYAFKEVIEKKNVKVEVAATERTLLGFFLAKVHKIDPDIIVGHNIYGFELEVLLQRINVCKAPHWSKIGRLKRSNMPKLGGRSGFGERNATCGRMICDVEISAKELIRCKSYHLSELVQQILKTERVVIPMENIQNMYSESSQLLYLLEHTWKDAKFILQIMCELNVLPLALQITNIAGNIMSRTLMGGRSERNEFLLLHAFYENNYIVPDKQIFRKPQQKLGDEDEEIDGDTNKYKKGRKKAAYAGGLVLDPKVGFYDKFILLLDFNSLYPSIIQEFNICFTTVQRVASEAQKVTEDGEQEQIPELPDPSLEMGILPREIRKLVERRKQVKQLMKQQDLNPDLILQYDIRQKALKLTANSMYGCLGFSYSRFYAKPLAALVTYKGREILMHTKEMVQKMNLEVIYGDTDSIMINTNSTNLEEVFKLGNKVKSEVNKLYKLLEIDIDGVFKSLLLLKKKKYAALVVEPTSDGNYVTKQELKGLDIVRRDWCDLAKDTGNFVIGQILSDQSRDTIVENIQKRLIEIGENVLNGSVPVSQFEINKALTKDPQDYPDKKSLPHVHVALWINSQGGRKVKAGDTVSYVICQDGSNLTASQRAYAPEQLQKQDNLTIDTQYYLAQQIHPVVARICEPIDGIDAVLIATWLGLDPTQFRVHHYHKDEENDALLGGPAQLTDEEKYRDCERFKCPCPTCGTENIYDNVFDGSGTDMEPSLYRCSNIDCKASPLTFTVQLSNKLIMDIRRFIKKYYDGWLICEEPTCRNRTRHLPLQFSRTGPLCPACMKATLQPEYSDKSLYTQLCFY
interaction with the B subunit: abolished interaction with the B subunit
